These results are taken from article PMC11574045, “A cofactor-induced repressive type of transcription factor condensation can be induced by synthetic peptides to suppress tumorigenesis” (The EMBO Journal, 2024).

This assay has as its system HEK293FT cells transfected with TF library. The assay can be described thus: Screening of TF condensates based on fluorescent puncta. The class given is cell-based. The conditions noted are these: Figure 1B numerical data; TF library screen, one value per transcriptional factor. An outline of the steps: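 TF plasmids (final 1.6 μg/ml) reverse-transfected with PEI (4.8 μg/ml) into HEK293FT cells; after 60 h, cells cultured ±glucose for 12 h, fixed in 4% PFA and immunostained for Flag or GAL4 tags with Alexa 488 secondaries. Puncta scored by automated imaging of 50 random fields per well.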

B1: ZBTB43 (protein, UniProt O43298 1-467, looked up)
Zinc finger and BTB …: MEPGTNSFRVEFPDFSSTILQKLNQQRQQGQLCDVSIVVQGHIFRAHKAVLAASSPYFCDQVLLKNSRRIVLPDVMNPRVFENILLSSYTGRLVMPAPEIVSYLTAASFLQMWHVVDKCTEVLEGNPTVLCQKLNHGSDHQSPSSSSYNGLVESFELGSGGHTDFPKAQELRDGENEEESTKDELSSQLTEHEYLPSNSSTEHDRLSTEMASQDGEEGASDSAEFHYTRPMYSKPSIMAHKRWIHVKPERLEQACEGMDVHATYDEHQVTESINTVQTEHTVQPSGVEEDFHIGEKKVEAEFDEQADESNYDEQVDFYGSSMEEFSGERSDGNLIGHRQEAALAAGYSENIEMVTGIKEEASHLGFSATDKLYPCQCGKSFTHKSQRDRHMSMHLGLRPYGCGVCGKKFKMKHHLVGHMKIHTGIKPYECNICAKRFMWRDSFHRHVTSCTKSYEAAKAEQNTTEAN
Turning to B1, the “Z score of condensed fraction” value amounted to 0.02104.

B2: ZDHHC18 (protein, UniProt Q9NUE0 1-388, looked up)
Palmitoyltransferase ZDHHC18: MKDCEYQQISPGAAPLPASPGARRPGPAASPTPGPGPAPPAAPAPPRWSSSGSGSGSGSGSLGRRPRRKWEVFPGRNRFYCGGRLMLAGHGGVFALTLLLILTTTGLFFVFDCPYLARKLTLAIPIIAAILFFFVMSCLLQTSFTDPGILPRATVCEAAALEKQIDNTGSSTYRPPPRTREVLINGQMVKLKYCFTCKMFRPPRTSHCSVCDNCVERFDHHCPWVGNCVGRRNYRFFYAFILSLSFLTAFIFACVVTHLTLRAQGSNFLSTLKETPASVLELVICFFSIWSILGLSGFHTYLVASNLTTNEDIKGSWSSKRGGEASVNPYSHKSIITNCCAVLCGPLPPSLIDRRGFVQSDTVLPSPIRSDEPACRAKPDASMVGGHP
In the case of B2, the “Z score of condensed fraction” value is listed as -0.2463.

B3: ZBTB44 (protein, UniProt Q8NCP5 1-570, looked up)
Zinc finger and BTB …: MGVKTFTHSSSSHSQEMLGKLNMLRNDGHFCDITIRVQDKIFRAHKVVLAACSDFFRTKLVGQAEDENKNVLDLHHVTVTGFIPLLEYAYTATLSINTENIIDVLAAASYMQMFSVASTCSEFMKSSILWNTPNSQPEKGLDAGQENNSNCNFTSRDGSISPVSSECSVVERTIPVCRESRRKRKSYIVMSPESPVKCGTQTSSPQVLNSSASYSENRNQPVDSSLAFPWTFPFGIDRRIQPEKVKQAENTRTLELPGPSETGRRMADYVTCESTKTTLPLGTEEDVRVKVERLSDEEVHEEVSQPVSASQSSLSDQQTVPGSEQVQEDLLISPQSSSIGSVDEGVSEGLPTLQSTSSTNAPPDDDDRLENVQYPYQLYIAPSTSSTERPSPNGPDRPFQCPTCGVRFTRIQNLKQHMLIHSGIKPFQCDRCGKKFTRAYSLKMHRLKHEGKRCFRCQICSATFTSFGEYKHHMRVSRHIIRKPRIYECKTCGAMFTNSGNLIVHLRSLNHEASELANYFQSSDFLVPDYLNQEQEETLVQYDLGEHGFESNSSVQMPVISQYHSKGKEP
Take B3: the “Z score of condensed fraction” value was -0.608.

B4: ZBTB48 (protein, UniProt P10074 1-688, looked up)
Zinc finger and BTB …: MDGSFVQHSVRVLQELNKQREKGQYCDATLDVGGLVFKAHWSVLACCSHFFQSLYGDGSGGSVVLPAGFAEIFGLLLDFFYTGHLALTSGNRDQVLLAARELRVPEAVELCQSFKPKTSVGQAAGGQSGLGPPASQNVNSHVKEPAGLEEEEVSRTLGLVPRDQEPRGSHSPQRPQLHSPAQSEGPSSLCGKLKQALKPCPLEDKKPEDCKVPPRPLEAEGAQLQGGSNEWEVVVQVEDDGDGDYMSEPEAVLTRRKSNVIRKPCAAEPALSAGSLAAEPAENRKGTAVPVECPTCHKKFLSKYYLKVHNRKHTGEKPFECPKCGKCYFRKENLLEHEARNCMNRSEQVFTCSVCQETFRRRMELRVHMVSHTGEMPYKCSSCSQQFMQKKDLQSHMIKLHGAPKPHACPTCAKCFLSRTELQLHEAFKHRGEKLFVCEECGHRASSRNGLQMHIKAKHRNERPHVCEFCSHAFTQKANLNMHLRTHTGEKPFQCHLCGKTFRTQASLDKHNRTHTGERPFSCEFCEQRFTEKGPLLRHVASRHQEGRPHFCQICGKTFKAVEQLRVHVRRHKGVRKFECTECGYKFTRQAHLRRHMEIHDRVENYNPRQRKLRNLIIEDEKMVVVALQPPAELEVGSAEVIVESLAQGGLASQLPGQRLCAEESFTGPGVLEPSLIITAAVPEDCDT
Take B4: the “Z score of condensed fraction” value is 0.7506.

B5: ZBTB6 (protein, UniProt Q15916 1-424, looked up)
Zinc finger and BTB …: MAAESDVLHFQFEQQGDVVLQKMNLLRQQNLFCDVSIYINDTEFQGHKVILAACSTFMRDQFLLTQSKHVRITILQSAEVGRKLLLSCYTGALEVKRKELLKYLTAASYLQMVHIVEKCTEALSKYLEIDLSMKNNNQHTDLCQSSDPDVKNEDENSDKDCEIIEISEDSPVNIDFHVKEEESNALQSTVESLTSERKEMKSPELSTVDIGFKDNEICILHVESISTAGVENGQFSQPCTSSKASMYFSETQHSLINSTVESRVAEVPGNQDQGLFCENTEGSYGTVSEIQNLEEGYSLRHQCPRCPRGFLHVENYLRHLKMHKLFLCLQCGKTFTQKKNLNRHIRGHMGIRPFQCTVCLKTFTAKSTLQDHLNIHSGDRPYKCHCCDMDFKHKSALKKHLTSVHGRSSGEKLSRPDLKRQSLL
As for B5, the “Z score of condensed fraction” value is -0.2886.

B6: ZBTB5 (protein, UniProt O15062 1-677, looked up)
Zinc finger and BTB …: MDFPGHFEQIFQQLNYQRLHGQLCDCVIVVGNRHFKAHRSVLAACSTHFRALFSVAEGDQTMNMIQLDSEVVTAEAFAALIDMMYTSTLMLGESNVMDVLLAASHLHLNSVVKACKHYLTTRTLPMSPPSERVQEQSARMQRSFMLQQLGLSIVSSALNSSQNGEEQPAPMSSSMRSNLDQRTPFPMRRLHKRKQSAEERARQRLRPSIDESAISDVTPENGPSGVHSREEFFSPDSLKIVDNPKADGMTDNQEDSAIMFDQSFGTQEDAQVPSQSDNSAGNMAQLSMASRATQVETSFDQEAAPEKSSFQCENPEVGLGEKEHMRVVVKSEPLSSPEPQDEVSDVTSQAEGSESVEVEGVVVSAEKIDLSPESSDRSFSDPQSSTDRVGDIHILEVTNNLEHKSTFSISNFLNKSRGNNFTANQNNDDNIPNTTSDCRLESEAPYLLSPEAGPAGGPSSAPGSHVENPFSEPADSHFVRPMQEVMGLPCVQTSGYQGGEQFGMDFSRSGLGLHSSFSRVMIGSPRGGASNFPYYRRIAPKMPVVTSVRSSQIPENSTSSQLMMNGATSSFENGHPSQPGPPQLTRASADVLSKCKKALSEHNVLVVEGARKYACKICCKTFLTLTDCKKHIRVHTGEKPYACLKCGKRFSQSSHLYKHSKTTCLRWQSSNLPSTLL
As to B6, the “Z score of condensed fraction” value was -0.7904.

B7: ZEB2 (protein, UniProt O60315 1-1214, looked up)
Zinc finger E-box-binding …: MKQPIMADGPRCKRRKQANPRRKNVVNYDNVVDTGSETDEEDKLHIAEDDGIANPLDQETSPASVPNHESSPHVSQALLPREEEEDEIREGGVEHPWHNNEILQASVDGPEEMKEDYDTMGPEATIQTAINNGTVKNANCTSDFEEYFAKRKLEERDGHAVSIEEYLQRSDTAIIYPEAPEELSRLGTPEANGQEENDLPPGTPDAFAQLLTCPYCDRGYKRLTSLKEHIKYRHEKNEENFSCPLCSYTFAYRTQLERHMVTHKPGTDQHQMLTQGAGNRKFKCTECGKAFKYKHHLKEHLRIHSGEKPYECPNCKKRFSHSGSYSSHISSKKCIGLISVNGRMRNNIKTGSSPNSVSSSPTNSAITQLRNKLENGKPLSMSEQTGLLKIKTEPLDFNDYKVLMATHGFSGTSPFMNGGLGATSPLGVHPSAQSPMQHLGVGMEAPLLGFPTMNSNLSEVQKVLQIVDNTVSRQKMDCKAEEISKLKGYHMKDPCSQPEEQGVTSPNIPPVGLPVVSHNGATKSIIDYTLEKVNEAKACLQSLTTDSRRQISNIKKEKLRTLIDLVTDDKMIENHNISTPFSCQFCKESFPGPIPLHQHERYLCKMNEEIKAVLQPHENIVPNKAGVFVDNKALLLSSVLSEKGMTSPINPYKDHMSVLKAYYAMNMEPNSDELLKISIAVGLPQEFVKEWFEQRKVYQYSNSRSPSLERSSKPLAPNSNPPTKDSLLPRSPVKPMDSITSPSIAELHNSVTNCDPPLRLTKPSHFTNIKPVEKLDHSRSNTPSPLNLSSTSSKNSHSSSYTPNSFSSEELQAEPLDLSLPKQMKEPKSIIATKNKTKASSISLDHNSVSSSSENSDEPLNLTFIKKEFSNSNNLDNKSTNPVFSMNPFSAKPLYTALPPQSAFPPATFMPPVQTSIPGLRPYPGLDQMSFLPHMAYTYPTGAATFADMQQRRKYQRKQGFQGELLDGAQDYMSGLDDMTDSDSCLSRKKIKKTESGMYACDLCDKTFQKSSSLLRHKYEHTGKRPHQCQICKKAFKHKHHLIEHSRLHSGEKPYQCDKCGKRFSHSGSYSQHMNHRYSYCKREAEEREAAEREAREKGHLEPTELLMNRAYLQSITPQGYSDSEERESMPRDGESEKEHEKEGEDGYGKLGRQDGDEEFEEEEEESENKSMDTDPETIRDEEETGDHSMDDSSEDGKMETKSDHEEDNMEDGM
With B7, the “Z score of condensed fraction” value was -0.2398.

B8: C1QBP (protein, UniProt Q07021 74-282, looked up)
Complement component 1 Q …: LHTDGDKAFVDFLSDEIKEERKIQKHKTLPKMSGGWELELNGTEAKLVRKVAGEKITVTFNINNSIPPTFDGEEEPSQGQKVEEQEPELTSTPNFVVEVIKNDDGKKALVLDCHYPEDEVGQEDEAESDIFSIREVSFQSTGESEWKDTNYTLNTDSLDWALYDHLMDFLADRGVDNTFADELVELSTALEHQEYITFLEDLKSFVKSQ
In the case of B8, the “Z score of condensed fraction” value is recorded as 2.537.
